Results reported in article PMC7988105.

How the values were obtained:
[1] = biological target: NRXN1β (lacking SS4) Fc fusion used as bait in the pull-down; test: pull-down; settings: chain shown with the change;; parent: est. 100; read off a plot
[2] = biological target: PTPδA3B– extracellular domain fused to Fc (mouse); test: pull-down; soluble recombinant proteins mixed at 0.03 μM each in HBSS, 2 mM CaCl2, 1 mM MgCl2, 3 h, then Protein A-Sepharose 1 h, room temperature; NLGN3-His6 detected with anti-His
PTPδA3B– extracellular domain fused to Fc (mouse), sequence (Q64487 other isoform, or with tags, fused parts or gaps mutant): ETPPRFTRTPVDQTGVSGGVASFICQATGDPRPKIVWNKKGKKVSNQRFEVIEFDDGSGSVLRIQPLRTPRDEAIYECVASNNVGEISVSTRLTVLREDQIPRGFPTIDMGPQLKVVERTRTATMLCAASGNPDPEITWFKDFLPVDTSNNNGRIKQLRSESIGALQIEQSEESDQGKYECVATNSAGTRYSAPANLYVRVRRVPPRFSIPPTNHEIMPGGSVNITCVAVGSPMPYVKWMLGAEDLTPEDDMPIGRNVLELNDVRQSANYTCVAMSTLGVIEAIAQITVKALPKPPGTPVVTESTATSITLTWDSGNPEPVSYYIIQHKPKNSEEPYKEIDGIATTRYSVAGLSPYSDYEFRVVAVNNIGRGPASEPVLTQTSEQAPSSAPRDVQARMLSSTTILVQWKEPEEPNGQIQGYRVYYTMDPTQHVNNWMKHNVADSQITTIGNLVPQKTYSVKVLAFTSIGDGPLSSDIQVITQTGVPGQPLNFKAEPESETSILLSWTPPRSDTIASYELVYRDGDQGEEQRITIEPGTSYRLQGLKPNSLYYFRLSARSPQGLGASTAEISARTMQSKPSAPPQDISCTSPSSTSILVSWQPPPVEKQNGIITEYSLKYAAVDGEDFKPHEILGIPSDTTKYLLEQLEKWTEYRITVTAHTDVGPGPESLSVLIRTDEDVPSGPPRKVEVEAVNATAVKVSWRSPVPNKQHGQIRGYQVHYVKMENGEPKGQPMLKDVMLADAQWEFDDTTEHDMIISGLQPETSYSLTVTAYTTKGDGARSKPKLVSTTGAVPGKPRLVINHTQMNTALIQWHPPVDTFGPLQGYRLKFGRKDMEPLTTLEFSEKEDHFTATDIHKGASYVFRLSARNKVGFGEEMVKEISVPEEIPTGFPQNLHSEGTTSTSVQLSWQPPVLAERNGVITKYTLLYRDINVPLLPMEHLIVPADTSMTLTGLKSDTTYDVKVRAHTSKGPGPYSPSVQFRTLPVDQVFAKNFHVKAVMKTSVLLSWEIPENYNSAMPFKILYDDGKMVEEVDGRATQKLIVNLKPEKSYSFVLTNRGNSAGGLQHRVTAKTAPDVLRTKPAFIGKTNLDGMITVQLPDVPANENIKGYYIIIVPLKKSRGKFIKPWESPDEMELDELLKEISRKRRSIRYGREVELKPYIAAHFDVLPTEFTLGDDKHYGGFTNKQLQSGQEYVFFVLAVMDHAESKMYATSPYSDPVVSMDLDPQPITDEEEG

NRXN1β (lacking SS4) Fc fusion used as bait in the pull-down, sequence (chain, as listed by the source): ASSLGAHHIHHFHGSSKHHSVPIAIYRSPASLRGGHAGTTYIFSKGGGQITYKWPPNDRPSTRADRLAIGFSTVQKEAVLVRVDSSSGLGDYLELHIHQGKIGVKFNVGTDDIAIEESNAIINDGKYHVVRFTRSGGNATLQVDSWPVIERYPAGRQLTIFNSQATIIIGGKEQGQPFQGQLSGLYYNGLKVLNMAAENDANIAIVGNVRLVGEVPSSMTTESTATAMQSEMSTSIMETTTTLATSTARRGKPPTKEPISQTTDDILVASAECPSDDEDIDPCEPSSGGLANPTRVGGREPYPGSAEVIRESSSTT

B1: mouse NLGN3 ECD (residues 35–684) with C-terminal His6 tag, Q8BYM5 H279A; S280A; E281A (protein)
chain: QAPAPTVNTHFGKLRGARVPLPSEILGPVDQYLGVPYAAPPIGEKRFLPPEPPPSWSGIRNATHFPPVCPQNIHTAVPEVMLPVWFTANLDIVATYIQEPNEDCLYLNVYVPTEDGSGAKKQGEDLADNDGDEDEDIRDSGAKPVMVYIHGGSYMEGTGNMIDGSVLASYGNVIVITLNYRVGVLGFLSTGDQAAKGNYGLLDQIQALRWVSENIAFFGGDPRRITVFGSGIGASCVSLLTLSHAAAGLFQRAIIQSGSALSSWAVNYQPVKYTSLLADKVGCNVLDTVDMVDCLRQKSAKELVEQDIQPARYHVAFGPVIDGDVIPDDPEILMEQGEFLNYDIMLGVNQGEGLKFVEGVVDPEDGVSGTDFDYSVSNFVDNLYGYPEGKDTLRETIKFMYTDWADRDNPETRRKTLVALFTDHQWVEPSVVTADLHARYGSPTYFYAFYHHCQSLMKPAWSDAAHGDEVPYVFGVPMVGPTDLFPCNFSKNDVMLSAVVMTYWTNFAKTGDPNKPVPQDTKFIHTKANRFEEVAWSKYNPRDQLYLHIGLKPRVRDHYRATKVAFWKHLVPHLYNLHDMFHYTSTTTKVPPPDTTHSSHITRRPNGKTWSTKRPAISPAYSNENAPGSWNGDQDAGPLLVENPRDYSTE
B1 gave a percent of parent [1] of 22 % WT.

B2: mouse NLGN3 ECD (residues 35–684) with C-terminal His6 tag, Q8BYM5 M614A; F615A (protein)
chain: QAPAPTVNTHFGKLRGARVPLPSEILGPVDQYLGVPYAAPPIGEKRFLPPEPPPSWSGIRNATHFPPVCPQNIHTAVPEVMLPVWFTANLDIVATYIQEPNEDCLYLNVYVPTEDGSGAKKQGEDLADNDGDEDEDIRDSGAKPVMVYIHGGSYMEGTGNMIDGSVLASYGNVIVITLNYRVGVLGFLSTGDQAAKGNYGLLDQIQALRWVSENIAFFGGDPRRITVFGSGIGASCVSLLTLSHHSEGLFQRAIIQSGSALSSWAVNYQPVKYTSLLADKVGCNVLDTVDMVDCLRQKSAKELVEQDIQPARYHVAFGPVIDGDVIPDDPEILMEQGEFLNYDIMLGVNQGEGLKFVEGVVDPEDGVSGTDFDYSVSNFVDNLYGYPEGKDTLRETIKFMYTDWADRDNPETRRKTLVALFTDHQWVEPSVVTADLHARYGSPTYFYAFYHHCQSLMKPAWSDAAHGDEVPYVFGVPMVGPTDLFPCNFSKNDVMLSAVVMTYWTNFAKTGDPNKPVPQDTKFIHTKANRFEEVAWSKYNPRDQLYLHIGLKPRVRDHYRATKVAFWKHLVPHLYNLHDAAHYTSTTTKVPPPDTTHSSHITRRPNGKTWSTKRPAISPAYSNENAPGSWNGDQDAGPLLVENPRDYSTE
Work on B2 yielded a percent of parent [1] of 104 % WT.

B3: NLGN3 ECD R448C mutant (R/C; equivalent to human R451C) with His6 tag, Q8BYM5 35-684 (domain or fragment)
chain: QAPAPTVNTHFGKLRGARVPLPSEILGPVDQYLGVPYAAPPIGEKRFLPPEPPPSWSGIRNATHFPPVCPQNIHTAVPEVMLPVWFTANLDIVATYIQEPNEDCLYLNVYVPTEDGSGAKKQGEDLADNDGDEDEDIRDSGAKPVMVYIHGGSYMEGTGNMIDGSVLASYGNVIVITLNYRVGVLGFLSTGDQAAKGNYGLLDQIQALRWVSENIAFFGGDPRRITVFGSGIGASCVSLLTLSHHSEGLFQRAIIQSGSALSSWAVNYQPVKYTSLLADKVGCNVLDTVDMVDCLRQKSAKELVEQDIQPARYHVAFGPVIDGDVIPDDPEILMEQGEFLNYDIMLGVNQGEGLKFVEGVVDPEDGVSGTDFDYSVSNFVDNLYGYPEGKDTLRETIKFMYTDWADRDNPETRCKTLVALFTDHQWVEPSVVTADLHARYGSPTYFYAFYHHCQSLMKPAWSDAAHGDEVPYVFGVPMVGPTDLFPCNFSKNDVMLSAVVMTYWTNFAKTGDPNKPVPQDTKFIHTKANRFEEVAWSKYNPRDQLYLHIGLKPRVRDHYRATKVAFWKHLVPHLYNLHDMFHYTSTTTKVPPPDTTHSSHITRRPNGKTWSTKRPAISPAYSNENAPGSWNGDQDAGPLLVENPRDYSTE
In the case of B3, the pulldown efficiency (% of wild-type) (% of wild-type) [2] is reported as 20.

B4: mouse NLGN3 ECD (residues 35–684) with C-terminal His6 tag, Q8BYM5 D362A; E372A; N375A (protein)
chain: QAPAPTVNTHFGKLRGARVPLPSEILGPVDQYLGVPYAAPPIGEKRFLPPEPPPSWSGIRNATHFPPVCPQNIHTAVPEVMLPVWFTANLDIVATYIQEPNEDCLYLNVYVPTEDGSGAKKQGEDLADNDGDEDEDIRDSGAKPVMVYIHGGSYMEGTGNMIDGSVLASYGNVIVITLNYRVGVLGFLSTGDQAAKGNYGLLDQIQALRWVSENIAFFGGDPRRITVFGSGIGASCVSLLTLSHHSEGLFQRAIIQSGSALSSWAVNYQPVKYTSLLADKVGCNVLDTVDMVDCLRQKSAKELVEQDIQPARYHVAFGPVIDGDVIPADPEILMEQGAFLAYDIMLGVNQGEGLKFVEGVVDPEDGVSGTDFDYSVSNFVDNLYGYPEGKDTLRETIKFMYTDWADRDNPETRRKTLVALFTDHQWVEPSVVTADLHARYGSPTYFYAFYHHCQSLMKPAWSDAAHGDEVPYVFGVPMVGPTDLFPCNFSKNDVMLSAVVMTYWTNFAKTGDPNKPVPQDTKFIHTKANRFEEVAWSKYNPRDQLYLHIGLKPRVRDHYRATKVAFWKHLVPHLYNLHDMFHYTSTTTKVPPPDTTHSSHITRRPNGKTWSTKRPAISPAYSNENAPGSWNGDQDAGPLLVENPRDYSTE
Work on B4 yielded a percent of parent [1] of 18 % WT.

B5: mouse NLGN3 ECD (residues 35–684) with C-terminal His6 tag, Q8BYM5 M614I; F615S (protein)
chain: QAPAPTVNTHFGKLRGARVPLPSEILGPVDQYLGVPYAAPPIGEKRFLPPEPPPSWSGIRNATHFPPVCPQNIHTAVPEVMLPVWFTANLDIVATYIQEPNEDCLYLNVYVPTEDGSGAKKQGEDLADNDGDEDEDIRDSGAKPVMVYIHGGSYMEGTGNMIDGSVLASYGNVIVITLNYRVGVLGFLSTGDQAAKGNYGLLDQIQALRWVSENIAFFGGDPRRITVFGSGIGASCVSLLTLSHHSEGLFQRAIIQSGSALSSWAVNYQPVKYTSLLADKVGCNVLDTVDMVDCLRQKSAKELVEQDIQPARYHVAFGPVIDGDVIPDDPEILMEQGEFLNYDIMLGVNQGEGLKFVEGVVDPEDGVSGTDFDYSVSNFVDNLYGYPEGKDTLRETIKFMYTDWADRDNPETRRKTLVALFTDHQWVEPSVVTADLHARYGSPTYFYAFYHHCQSLMKPAWSDAAHGDEVPYVFGVPMVGPTDLFPCNFSKNDVMLSAVVMTYWTNFAKTGDPNKPVPQDTKFIHTKANRFEEVAWSKYNPRDQLYLHIGLKPRVRDHYRATKVAFWKHLVPHLYNLHDISHYTSTTTKVPPPDTTHSSHITRRPNGKTWSTKRPAISPAYSNENAPGSWNGDQDAGPLLVENPRDYSTE
With B5 the percent of parent [1] was 115 % WT.
